The results in this text go back to IntAct's records for PubMed 17934474.

brr2_yeast BRR2, sequence (P32639 whole entry): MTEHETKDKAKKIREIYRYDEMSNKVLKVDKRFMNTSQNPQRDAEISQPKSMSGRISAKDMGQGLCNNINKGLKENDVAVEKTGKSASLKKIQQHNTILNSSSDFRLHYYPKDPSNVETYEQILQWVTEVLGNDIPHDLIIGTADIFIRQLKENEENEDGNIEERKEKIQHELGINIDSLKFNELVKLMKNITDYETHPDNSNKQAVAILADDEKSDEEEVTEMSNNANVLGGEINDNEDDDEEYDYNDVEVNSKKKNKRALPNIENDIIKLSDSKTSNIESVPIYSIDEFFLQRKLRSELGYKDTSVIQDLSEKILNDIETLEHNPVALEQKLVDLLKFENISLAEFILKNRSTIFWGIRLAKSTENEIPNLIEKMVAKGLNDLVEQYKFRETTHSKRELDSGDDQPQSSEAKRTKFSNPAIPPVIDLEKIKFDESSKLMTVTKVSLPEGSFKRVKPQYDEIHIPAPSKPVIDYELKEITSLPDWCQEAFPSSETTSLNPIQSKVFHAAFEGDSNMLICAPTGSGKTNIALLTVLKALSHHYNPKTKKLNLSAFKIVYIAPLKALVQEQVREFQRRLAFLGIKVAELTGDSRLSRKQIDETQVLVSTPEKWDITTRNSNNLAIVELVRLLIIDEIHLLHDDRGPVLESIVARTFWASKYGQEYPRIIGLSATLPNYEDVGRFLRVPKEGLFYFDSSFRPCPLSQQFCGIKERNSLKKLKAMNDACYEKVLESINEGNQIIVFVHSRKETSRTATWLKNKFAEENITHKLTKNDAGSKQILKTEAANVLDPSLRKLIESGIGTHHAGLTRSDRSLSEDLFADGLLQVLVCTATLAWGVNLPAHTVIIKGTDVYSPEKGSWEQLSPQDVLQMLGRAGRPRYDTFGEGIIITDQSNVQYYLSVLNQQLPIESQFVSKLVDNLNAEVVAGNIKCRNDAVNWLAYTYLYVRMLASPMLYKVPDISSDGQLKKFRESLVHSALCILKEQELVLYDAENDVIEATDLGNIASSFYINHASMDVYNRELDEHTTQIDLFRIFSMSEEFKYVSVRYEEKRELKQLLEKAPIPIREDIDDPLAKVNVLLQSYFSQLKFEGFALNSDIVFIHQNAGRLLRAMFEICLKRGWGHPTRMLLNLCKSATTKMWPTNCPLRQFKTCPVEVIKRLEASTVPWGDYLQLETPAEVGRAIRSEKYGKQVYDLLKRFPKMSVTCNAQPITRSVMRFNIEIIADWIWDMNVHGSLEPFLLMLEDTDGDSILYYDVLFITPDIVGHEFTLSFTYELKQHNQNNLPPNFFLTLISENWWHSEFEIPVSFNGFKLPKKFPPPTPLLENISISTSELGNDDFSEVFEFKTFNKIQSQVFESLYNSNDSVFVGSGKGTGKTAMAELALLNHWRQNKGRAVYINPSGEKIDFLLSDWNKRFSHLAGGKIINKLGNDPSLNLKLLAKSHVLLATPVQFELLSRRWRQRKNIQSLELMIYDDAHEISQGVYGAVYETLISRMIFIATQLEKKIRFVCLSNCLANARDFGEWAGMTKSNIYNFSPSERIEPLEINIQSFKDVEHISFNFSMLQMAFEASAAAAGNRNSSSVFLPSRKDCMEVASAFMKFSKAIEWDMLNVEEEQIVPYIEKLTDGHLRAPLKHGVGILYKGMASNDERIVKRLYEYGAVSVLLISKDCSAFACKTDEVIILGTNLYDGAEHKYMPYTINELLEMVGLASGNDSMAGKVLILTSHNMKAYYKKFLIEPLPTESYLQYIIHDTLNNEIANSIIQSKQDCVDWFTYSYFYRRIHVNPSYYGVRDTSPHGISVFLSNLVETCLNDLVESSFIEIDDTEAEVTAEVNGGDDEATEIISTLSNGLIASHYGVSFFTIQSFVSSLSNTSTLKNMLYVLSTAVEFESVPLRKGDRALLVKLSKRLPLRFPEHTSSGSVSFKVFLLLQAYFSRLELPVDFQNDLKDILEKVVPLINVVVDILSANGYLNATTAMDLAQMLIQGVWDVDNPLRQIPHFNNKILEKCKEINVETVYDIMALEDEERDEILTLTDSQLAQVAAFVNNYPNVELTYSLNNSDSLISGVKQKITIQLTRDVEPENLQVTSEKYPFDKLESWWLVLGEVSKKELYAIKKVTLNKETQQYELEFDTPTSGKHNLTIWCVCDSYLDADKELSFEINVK
Pre-mRNA-splicing factor 8 (Saccharomyces cerevisiae), P33334 H2387P, sequence (P33334 whole entry H2387P): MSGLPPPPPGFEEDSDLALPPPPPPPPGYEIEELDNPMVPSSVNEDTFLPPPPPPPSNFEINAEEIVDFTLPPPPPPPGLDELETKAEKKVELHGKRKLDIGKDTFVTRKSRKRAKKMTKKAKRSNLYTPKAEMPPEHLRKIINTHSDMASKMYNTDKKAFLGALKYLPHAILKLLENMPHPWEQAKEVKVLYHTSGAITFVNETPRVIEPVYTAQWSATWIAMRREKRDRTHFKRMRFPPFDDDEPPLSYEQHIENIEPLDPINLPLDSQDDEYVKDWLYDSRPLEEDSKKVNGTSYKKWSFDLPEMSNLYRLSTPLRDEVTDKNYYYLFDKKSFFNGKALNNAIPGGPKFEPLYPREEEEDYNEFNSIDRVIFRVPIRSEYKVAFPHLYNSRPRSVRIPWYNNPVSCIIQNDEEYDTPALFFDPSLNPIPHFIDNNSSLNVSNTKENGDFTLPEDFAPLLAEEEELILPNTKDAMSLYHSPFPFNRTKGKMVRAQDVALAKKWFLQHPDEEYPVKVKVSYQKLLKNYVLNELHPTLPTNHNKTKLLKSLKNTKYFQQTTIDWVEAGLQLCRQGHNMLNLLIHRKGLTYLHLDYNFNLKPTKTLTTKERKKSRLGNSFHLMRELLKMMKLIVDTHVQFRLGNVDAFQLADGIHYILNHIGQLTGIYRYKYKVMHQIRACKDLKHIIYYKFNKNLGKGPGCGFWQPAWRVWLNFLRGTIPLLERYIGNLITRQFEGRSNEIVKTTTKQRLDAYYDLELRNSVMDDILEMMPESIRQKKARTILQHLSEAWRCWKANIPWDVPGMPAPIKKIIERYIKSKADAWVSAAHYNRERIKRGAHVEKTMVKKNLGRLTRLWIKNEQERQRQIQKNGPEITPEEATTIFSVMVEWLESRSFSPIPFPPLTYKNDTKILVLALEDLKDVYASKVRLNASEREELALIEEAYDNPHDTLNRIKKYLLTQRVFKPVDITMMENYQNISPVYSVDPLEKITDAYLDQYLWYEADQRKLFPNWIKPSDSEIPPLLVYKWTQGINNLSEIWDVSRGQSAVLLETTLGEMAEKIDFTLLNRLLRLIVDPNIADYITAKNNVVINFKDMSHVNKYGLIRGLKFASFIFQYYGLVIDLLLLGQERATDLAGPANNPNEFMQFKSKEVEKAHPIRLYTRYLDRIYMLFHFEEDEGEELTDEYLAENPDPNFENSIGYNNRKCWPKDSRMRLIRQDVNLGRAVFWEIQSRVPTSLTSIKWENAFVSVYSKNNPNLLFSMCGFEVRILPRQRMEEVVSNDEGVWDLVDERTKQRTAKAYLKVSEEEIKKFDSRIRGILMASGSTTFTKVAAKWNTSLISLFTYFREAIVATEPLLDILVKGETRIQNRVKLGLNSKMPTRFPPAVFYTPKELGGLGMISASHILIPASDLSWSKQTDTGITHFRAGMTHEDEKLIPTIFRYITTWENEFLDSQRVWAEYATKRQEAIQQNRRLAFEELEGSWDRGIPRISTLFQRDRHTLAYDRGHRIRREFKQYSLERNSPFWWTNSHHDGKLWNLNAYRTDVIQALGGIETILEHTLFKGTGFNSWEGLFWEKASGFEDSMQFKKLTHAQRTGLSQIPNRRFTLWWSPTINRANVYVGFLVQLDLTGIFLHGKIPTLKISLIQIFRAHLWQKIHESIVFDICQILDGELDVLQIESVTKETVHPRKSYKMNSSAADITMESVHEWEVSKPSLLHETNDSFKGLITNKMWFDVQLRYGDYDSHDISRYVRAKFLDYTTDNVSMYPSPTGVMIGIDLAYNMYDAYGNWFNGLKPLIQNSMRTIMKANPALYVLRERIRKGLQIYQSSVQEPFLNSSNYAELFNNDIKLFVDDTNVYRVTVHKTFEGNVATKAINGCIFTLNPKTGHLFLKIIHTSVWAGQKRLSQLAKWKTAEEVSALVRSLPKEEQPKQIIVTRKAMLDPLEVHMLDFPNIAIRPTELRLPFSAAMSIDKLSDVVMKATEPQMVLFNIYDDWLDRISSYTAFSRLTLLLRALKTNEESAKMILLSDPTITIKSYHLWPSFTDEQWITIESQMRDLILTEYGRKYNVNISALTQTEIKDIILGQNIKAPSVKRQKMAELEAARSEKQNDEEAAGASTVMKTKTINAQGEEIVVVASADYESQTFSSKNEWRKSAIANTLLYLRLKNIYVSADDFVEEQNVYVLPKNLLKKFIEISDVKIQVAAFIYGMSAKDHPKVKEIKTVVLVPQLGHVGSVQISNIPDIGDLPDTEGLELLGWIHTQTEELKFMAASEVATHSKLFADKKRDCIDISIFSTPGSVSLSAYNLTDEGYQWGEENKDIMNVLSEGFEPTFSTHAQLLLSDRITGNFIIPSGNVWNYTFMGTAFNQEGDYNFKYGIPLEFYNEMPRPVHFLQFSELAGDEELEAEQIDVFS

The experiment has as its target brr2_yeast BRR2 (UniProt P32639).
In the case of “Pre-mRNA-splicing factor 8 (Saccharomyces cerevisiae), P33334 H2387P”, the “effect of a mutation on the interaction” value is on record as “disrupting interaction”. To “Pre-mRNA-splicing factor 8 (Saccharomyces cerevisiae), P33334 F2392L” belongs “disrupting interaction”; to “Pre-mRNA-splicing factor 8 (Saccharomyces cerevisiae), P33334 R2388G”, “disrupting interaction”. To “Pre-mRNA-splicing factor 8 (Saccharomyces cerevisiae), P33334 P2379T” belongs “decreasing interaction”; to “Pre-mRNA-splicing factor 8 (Saccharomyces cerevisiae), P33334 F2382L”, “decreasing interaction”; to “Pre-mRNA-splicing factor 8 (Saccharomyces cerevisiae), P33334 R2388K”, “disrupting interaction”. Take “Pre-mRNA-splicing factor 8 (Saccharomyces cerevisiae), P33334 H2387R”: the “effect of a mutation on the interaction” value is given as “disrupting interaction”.
